From article PMC3507621 come the findings set out here.

For assay [1], the target named is T1, inter-α-trypsin inhibitor (IαI), P19827;P19823.
T1 chain 1: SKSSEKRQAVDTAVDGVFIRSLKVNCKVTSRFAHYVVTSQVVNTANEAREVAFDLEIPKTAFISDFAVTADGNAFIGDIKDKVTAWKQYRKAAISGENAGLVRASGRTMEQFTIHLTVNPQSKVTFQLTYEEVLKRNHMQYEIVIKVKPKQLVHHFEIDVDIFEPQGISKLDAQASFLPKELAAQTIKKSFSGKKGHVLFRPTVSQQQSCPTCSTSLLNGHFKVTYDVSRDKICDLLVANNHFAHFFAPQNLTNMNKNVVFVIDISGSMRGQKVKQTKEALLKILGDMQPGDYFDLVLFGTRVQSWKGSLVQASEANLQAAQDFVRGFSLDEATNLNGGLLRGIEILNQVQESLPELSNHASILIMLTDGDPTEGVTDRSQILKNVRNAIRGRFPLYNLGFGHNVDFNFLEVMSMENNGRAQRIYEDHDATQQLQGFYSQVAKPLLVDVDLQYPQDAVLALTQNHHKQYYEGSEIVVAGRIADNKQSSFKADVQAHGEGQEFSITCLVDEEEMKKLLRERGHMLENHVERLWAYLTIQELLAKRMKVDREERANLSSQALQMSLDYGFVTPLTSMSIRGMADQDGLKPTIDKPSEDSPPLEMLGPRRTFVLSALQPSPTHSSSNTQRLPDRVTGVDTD
T1 chain 2: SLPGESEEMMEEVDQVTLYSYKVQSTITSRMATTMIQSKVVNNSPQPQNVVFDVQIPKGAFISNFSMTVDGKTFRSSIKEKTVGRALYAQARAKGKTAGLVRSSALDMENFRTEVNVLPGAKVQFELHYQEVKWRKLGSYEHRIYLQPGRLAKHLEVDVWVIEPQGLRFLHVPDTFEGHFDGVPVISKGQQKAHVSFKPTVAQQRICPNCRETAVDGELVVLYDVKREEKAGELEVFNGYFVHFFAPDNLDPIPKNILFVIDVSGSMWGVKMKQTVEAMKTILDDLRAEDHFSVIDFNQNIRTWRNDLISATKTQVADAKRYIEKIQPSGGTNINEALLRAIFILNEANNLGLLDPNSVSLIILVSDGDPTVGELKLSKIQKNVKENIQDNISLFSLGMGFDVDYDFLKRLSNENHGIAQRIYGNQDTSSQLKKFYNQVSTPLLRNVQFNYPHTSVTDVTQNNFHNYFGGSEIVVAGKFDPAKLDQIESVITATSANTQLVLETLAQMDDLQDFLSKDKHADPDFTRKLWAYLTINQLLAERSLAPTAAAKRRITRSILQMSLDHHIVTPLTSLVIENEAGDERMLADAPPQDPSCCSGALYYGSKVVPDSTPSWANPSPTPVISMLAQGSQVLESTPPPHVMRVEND
T1 chain 3: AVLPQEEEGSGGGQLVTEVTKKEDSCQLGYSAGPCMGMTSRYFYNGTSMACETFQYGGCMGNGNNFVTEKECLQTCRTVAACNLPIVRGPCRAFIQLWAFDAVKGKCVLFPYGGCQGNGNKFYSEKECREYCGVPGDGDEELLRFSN
Put plainly: ELISA. The settings on record: chain shown with the change, pH 7.4, PBS with Ca2+ and Mg2+, read off a plot. (In general: An ELISA detects its analyte on a solid surface through an enzyme-linked reagent.)

Assay [2] addresses T1, inter-α-trypsin inhibitor (IαI), …. The assay can be described thus: competition ELISA (bPTX3 detected with HRP-conjugated streptavidin). The settings on record: chain shown with the change, wells coated with IαI, read off a plot.
[3] abbreviates: IαI 100 nM (est. from x axis), parent: est. 2.6.
Where [4] appears, read: IαI about 1.7 nM (est. from x axis), parent: est. 1.0.
Where [5] appears, read: IαI about 6 nM (est. from x axis), parent: est. 2.2.
Where [6] appears, read: IαI about 46 nM (est. from x axis), parent: est. 2.7.
[7] abbreviates: IαI about 13 nM (est. from x axis), parent: est. 2.5.

B1: wild type recombinant N-terminal region of PTX3 (N_PTX3), P26022 C47S; C49S; C103S (protein)
chain: ENSDDYDLMYVNLDNEIDNGLHPTEDPTPSASGQEHSEWDKLFIMLENSQMRERMLLQATDDVLRGELQRLREELGRLAESLARPSAPGAPAEARLTSALDELLQATRDAGRRLARMEGAEAQRPEEAGRALAAVLEELRQTRADLHAVQGWATG
On to B1, for which the response in assay [1] (setting [3]) is 2.6 O.D. (450nm); in assay [1] (setting [4]) it was 0.45 O.D. (450nm); in assay [1] (setting [5]), 1.3 O.D. (450nm); in assay [1] (setting [6]), 2.5 O.D. (450nm). Also, the other: bPTX3 bound to IαI (% of bPTX3 binding in the absence of competitors) is 99% in assay [2] (competitor about 0.24 nM (est. from x axis), parent: est. 99); 96% in assay [2] (competitor about 2.5 nM (est. from x axis), parent: est. 98); 82% in assay [2] (competitor about 24 nM (est. from x axis), parent: est. 80); 59% in assay [2] (competitor about 240 nM (est. from x axis), parent: est. 38); 30% in assay [2] (competitor about 2400 nM (est. from x axis), parent: est. 11).

B2: wild type recombinant N-terminal region of PTX3 (N_PTX3), P26022 C47S; C49S (protein)
chain: ENSDDYDLMYVNLDNEIDNGLHPTEDPTPSASGQEHSEWDKLFIMLENSQMRERMLLQATDDVLRGELQRLREELGRLAESLARPCAPGAPAEARLTSALDELLQATRDAGRRLARMEGAEAQRPEEAGRALAAVLEELRQTRADLHAVQGWATG
Regarding B2, the response is 2.6 O.D. (450nm) in assay [1] (setting [3]); 0.24 O.D. (450nm) in assay [1] (setting [4]); 0.86 O.D. (450nm) in assay [1] (setting [5]); 1.4 O.D. (450nm) in assay [1] (setting [7]); 2.4 O.D. (450nm) in assay [1] (setting [6]).

B3: wild type recombinant N-terminal region of PTX3 (N_PTX3), P26022 C103S (protein)
chain: ENSDDYDLMYVNLDNEIDNGLHPTEDPTPCACGQEHSEWDKLFIMLENSQMRERMLLQATDDVLRGELQRLREELGRLAESLARPSAPGAPAEARLTSALDELLQATRDAGRRLARMEGAEAQRPEEAGRALAAVLEELRQTRADLHAVQGWATG
For the molecule B3, the response in assay [1] (setting [3]) is 2.6 O.D. (450nm); in assay [1] (setting [4]), 0.28 O.D. (450nm); in assay [1] (setting [5]), 1.1 O.D. (450nm); in assay [1] (setting [7]), 1.7 O.D. (450nm); in assay [1] (setting [6]), 2.5 O.D. (450nm).
